Key:
Binding to heparin beads = conditions: gel electrophoresis prior to or following incubation with heparin beads
Source text: (§1) FIG. 7. […] A. Cell lysates. […] B,C. Peptide analysis. […] C. Enzymatic activity.

heparanase = target: T1, heparanase (Homo sapiens, UniProt Q9Y251); assay: Inhibition of purified active heparanase by peptides (35S-labeled ECM degradation); format: biochemical; conditions: peptide 50 μg/ml; purified active heparanase 40 ng
T1 construct: the 8 kDa portion and the 50 kDa portion form a heterodimer, which is enzymatically active
T1 sequence (Q9Y251 36-109 limits assumed): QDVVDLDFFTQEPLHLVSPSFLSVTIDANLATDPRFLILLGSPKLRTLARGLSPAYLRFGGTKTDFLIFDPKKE
T1 sequence (Q9Y251 158-543 limits assumed): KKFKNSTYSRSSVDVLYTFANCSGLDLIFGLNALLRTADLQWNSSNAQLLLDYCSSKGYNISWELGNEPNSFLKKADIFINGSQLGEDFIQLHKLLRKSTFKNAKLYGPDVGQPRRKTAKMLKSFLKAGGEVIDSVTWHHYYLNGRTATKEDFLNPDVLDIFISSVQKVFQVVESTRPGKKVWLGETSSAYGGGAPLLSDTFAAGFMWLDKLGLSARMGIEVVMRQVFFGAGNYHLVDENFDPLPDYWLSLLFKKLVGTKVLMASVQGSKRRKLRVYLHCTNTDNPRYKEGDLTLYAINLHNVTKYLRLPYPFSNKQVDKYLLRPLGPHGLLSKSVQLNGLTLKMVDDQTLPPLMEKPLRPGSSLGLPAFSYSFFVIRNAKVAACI
Procedure: as §1
(§2) Preparation of cell lysates, protein blotting, and measurement of heparanase enzymatic activity were carried out as described previously (Zetser, A., et al., 2006, Cancer Res 66, 1455-1463; Fux, L., et al., 2009, Cancer Res 69, 1758-1767).

Src [1] = assay: Src phosphorylation (immunoblot, densitometry) in CAG myeloma cells; format: cell-based, human; conditions: serum-free
Procedure: (§3) FIG. 3. T5 augments Src phosphorylation. A. Over expression. CAG myeloma (left) and 293 (right) cells infected with heparanase (Hepa), T5, or control empty vector (Vo) were grown in the absence (−) or presence (+) of heparin (50 μg/ml) under serum-free conditions. Total cell lysates were subjected to immunoblotting applying anti-heparanase 1453 (upper and second panels), anti-phospho-Src (p-Src, third panels), anti-Src (fourth panels) anti-phospho-Erk (p-Erk, fifth panels), and anti-Erk2 (sixth panels) antibodies. Src phosphorylation index was calculated by densitometry analysis of phosphorylated Src levels divided by the total Src values. Data is presented as average fold increase ±SE of Src phosphorylation compared with control, Vo cells, set arbitrary to a value of 1 (lower panels) of five independent experiments. B. Gene silencing. Parental 293 cells were transfected with anti-heparanase, anti-T5, or control siRNAs. Total RNA was extracted and RT-PCR analysis was performed applying T5 (upper panel), heparanase (Hepa, second panel) and GAPDH (third panel) specific primers. Corresponding cell lysates were subjected to immunoblotting applying phospho-Src (p-Src, fourth panel), Src (fifth panel), phospho-Erk (p-Erk, sixth panel) and Erk2 (seventh panel) antibodies. Src phosphorylation index was calculated as above and is shown graphically in the lower panel. Note decreased Src phosphorylation levels upon T5 down regulation.
as §2

293 cells = assay: T5 and heparanase levels in cell conditioned medium with heparin (immunoblot); format: cell-based, human; conditions: heparin 50 μg/ml, 20 h, serum-free
Source text: as §1

T5 = T5 protein bands in T5-transfected 293 cells treated with tunicamycin or chloroquine (immunoblot); format: cell-based, human; conditions: tunicamycin 10, 20 μg/ml
Source text: FIG. 2. Cloning and expression of T5. A. RT-PCR analysis. Total RNA was extracted from the indicated cell line and subjected to RT-PCR analysis applying T5 (upper panel), heparanase (second panel) and GAPDH (third panel) specific primers, specified in the ‘Materials and Methods’ section. B. T5 transfection. […] Control cells were transfected with an empty vector (Vo). Cell lysates (left) and cell conditioned medium (right) were blotted with anti-heparanase 1453 antibody. C. Cellular localization. Stably transfected 293 cells were triple stained for Myc-tag (T5; middle, red), the ER marker calnexin (ER, left, green), and merged with cell nuclei labeled with TO-PRO (right, blue). Cells were similarly stained with anti-Myc-tag (T5; middle, red), the Golgi marker wheat germ agglutinin-FITC (Golgi, left, green) and merged with cell nuclei labeled with TO-PRO (right, blue). […] D. Enzymatic activity. 293 cells transfected with heparanase (Hepa), T5 or control empty vector (Vo) were subjected to three freeze-thaw cycles and applied onto culture dishes coated with ^35S-labelled ECM. Release of sulfate-labeled material eluted in fractions 15-30 was evaluated as measure of heparanase activity, as described in ‘Materials and Methods’. […]

[2] = system: CAG myeloma, FaDu pharynx carcinoma and 293 cells; assay: Colony formation in soft agar; format: cell-based, human; conditions: over expression in CAG myeloma, FaDu and 293 cells
Procedure: (§4) FIG. 4. T5 augments cell proliferation. A. BrdU incorporation. Morphology of control (Con), heparanase (Hepa)- and T5-infected CAG myeloma cell cultures is shown in the upper panels. […] Sub-confluent cultures of control (Vo), heparanase (Hepa)- and T5-infected CAG cells were grown in serum-free medium for 20 h followed by incubation with BrdU (1:1000) for 2 h. Cells were then fixed and immunostained with anti BrdU monoclonal antibody. Positively stained, red-brown nuclei were counted vs. blue, hematoxilin counter-stained nuclei. At least 1000 cells were counted for each cell type and the percentage of positively stained cells is noted in each panel. Fold increase in BrdU incorporation is shown graphically on the right panel. Gene silencing. 293 cells were transfected with anti-GFP (si-GFP), anti-heparanase (si-Hepa) or anti-T5 siRNA oligonucleotides and BrdU incorporation was evaluated as above except that cells were kept in serum-containing medium (lower panels). Note 2-fold decrease in BrdU incorporation following heparanase or T5 gene silencing (lower right panel). B. Colony formation in soft agar. […]
Three ml of DMEM containing 0.5% low melt agarose (Bio-Rad, Hercules, Calif.) and 10% fetal calf serum was poured into 60 mm petri dishes. […] Colonies were visualized and counted under a microscope after 2-5 weeks, as described.

CAG myeloma cells [3] = assay: Cell proliferation by BrdU incorporation, CAG myeloma cells; format: cell-based, human; conditions: infected CAG cells, serum-free 20 h, BrdU 2 h; control Vo 24±3%
Procedure: as §4
Cell proliferation was analyzed by BrdU incorporation using cell proliferation labeling reagent (1:1000, GE Healthcare), as described in Zetser, A., et al (2003 Cancer Res 63, 7733-7741). At least 1000 cells were counted for each cell type.

CAG myeloma cells [4] = assay: CAG myeloma tumor xenograft development and immunohistochemistry; format: in vivo, athymic nude mice
Procedure: FIG. 5. T5 enhances tumor xenograft development. Control (Vo), heparanase-, and T5-infected CAG myeloma cells were injected subcutaneously (1×10^6/0.1 ml) and tumor volume was calculated (A). At the end of the experiment on day 37, tumors were resected, photographed (A, inset) and weighted (B). C. Immunohistochemical analysis. Paraffin-embedded 5 micron sections were stained with hematoxilin & eosin (left column), anti-CD31 (second left column), and anti-smooth muscle actin (SMA, two right columns) antibodies. Note increased blood vessels density and maturation (recruitment of SMA-positive cells) in xenografts produced by heparanase- and T5-infected cells. Cells from exponential cultures of control-, heparanase-, and T5-infected CAG myeloma cells were detached with trypsin/EDTA, washed with PBS and brought to a concentration of 1×10^7 cells/ml. Cell suspension (1×10 6/0.1 ml) was inoculated subcutaneously at the right flank of 5-weeks old female athymic nude mice (n=7). Xenograft size was determined twice a week by externally measuring tumors in two dimensions using a caliper. At the end of the experiment, mice were sacrificed and xenografts were removed, weighted and fixed in formalin. Paraffin-embedded 5 micron sections were subjected to immunostaining with anti-PECAM-1 (CD31) or anti-smooth muscle actin (1A4, Sigma) antibodies, using the Envision kit, according to the manufacturer's (Dako, Glostrup, Denmark) instructions, as described (Fux, L., et al., 2009, Cancer Res 69, 1758-1767). All animal experiments were approved by the Animal Care Committee of the Technion, Haifa, Israel.

Src [5] = assay: Src phosphorylation (immunoblot, densitometry) in 293 cells; format: cell-based, human; conditions: over expressing 293 cells, serum-free
Procedure: as §3, with “(-)” for “(−)”, “Data is presented as average fold increase ±SE of Src phosphorylation compared with control, Vo cells, set arbitrary to a value of 1 (lower panels) of five independent experiments.” left out, “regulation. […]” for “regulation.”

Erk = Erk phosphorylation (immunoblot) in CAG myeloma and 293 cells; format: cell-based, human
Procedure: as §3, with “Note decreased Src phosphorylation levels upon T5 down regulation.” left out

[6] = CAG xenografts, immunohistochemistry

Molecule: CKKFKNSTYSSKK [CKKK]
- interaction of peptide with heparin (Binding to heparin beads): failed to interact with heparin
- inhibition of heparanase enzymatic activity (heparanase): failed to interact with heparin or to inhibit heparanase enzymatic activity

Molecule: heparin
- effect of heparin on Src phosphorylation enhanced by heparanase or T5 (Src [1]; heparin 50 μg/ml, CAG myeloma and 293 cells): not affected
- T5 levels in the cell culture medium upon addition of heparin (293 cells): not affected
- heparanase levels in the cell culture medium upon addition of heparin (293 cells): markedly increased

Molecule: tunicamycin
- amount of the ˜17 kDa T5 band (T5): markedly reduced

B1: heparanase: full length wild type human heparanase, endo-β-D-glucuronidase (protein)
chain: QDVVDLDFFTQEPLHLVSPSFLSVTIDANLATDPRFLILLGSPKLRTLARGLSPAYLRFGGTKTDFLIFDPKKESTFEERSYWQSQVNQDICKYGSIPPDVEEKLRLEWPYQEQLLLREHYQKKFKNSTYSRSSVDVLYTFANCSGLDLIFGLNALLRTADLQWNSSNAQLLLDYCSSKGYNISWELGNEPNSFLKKADIFINGSQLGEDFIQLHKLLRKSTFKNAKLYGPDVGQPRRKTAKMLKSFLKAGGEVIDSVTWHHYYLNGRTATKEDFLNPDVLDIFISSVQKVFQVVESTRPGKKVWLGETSSAYGGGAPLLSDTFAAGFMWLDKLGLSARMGIEVVMRQVFFGAGNYHLVDENFDPLPDYWLSLLFKKLVGTKVLMASVQGSKRRKLRVYLHCTNTDNPRYKEGDLTLYAINLHNVTKYLRLPYPFSNKQVDKYLLRPLGPHGLLSKSVQLNGLTLKMVDDQTLPPLMEKPLRPGSSLGLPAFSYSFFVIRNAKVAACI
- colony number, size and cell density in soft agar [2]: markedly increased
- Src phosphorylation increase vs control Vo cells (Src [1]; infected CAG myeloma cells): ~3 fold
- BrdU incorporation (positively stained cells) (CAG myeloma cells [3]): 49±6%
- micro vessel density (CD31) (CAG myeloma cells [4]; [6]): two-fold increase in vessel density
- pericytes associated with blood vessels (smooth muscle actin) (CAG myeloma cells [4]; [6]): significantly increased number of pericytes
- average weight of xenografts (CAG myeloma cells [4]; day 37, subcutaneous infected CAG cells, control 58±11 mg): 648 ± 69 mg
- development of tumor xenografts after day 21 vs control cells (CAG myeloma cells [4]; subcutaneous infected CAG cells): markedly enhanced
- Src phosphorylation enhancement vs control Vo cells (Src [5]): ~4 fold
- Erk phosphorylation upon over expression (Erk): not affected
